Results as given in patent US20080171037A1 (Genentech, published 2008).

Biological target: T1, ECD of the Apo-2L receptor, DR5 (UniProt O14763 56-210, limits assumed)
T1 construct: extracellular domain; Comparison receptor
Test: co-immunoprecipitation (anti-Flag sepharose or nickel-sepharose), Western blot with nickel-conjugated HRP
Experimental: The respective ligands (1 μg/ml) and receptors (1 μg/ml) were incubated for 1 hour at room temperature. The reaction mixtures were subjected to precipitation with anti-Flag antibody conjugated to sepharose beads (Kodak) (FIG. 8A, left) or nickel-sepharose (Qiagen) (FIG. 8A, right) by overnight incubation at 4° C. according to manufacturer's instructions and resolved by gel electrophoresis. The ligands were visualized by Western blot analysis with nickel-conjugated horseradish peroxidase. In FIG. 8A, molecular weight markers (kDa) are indicated on the left.

B1: His-tagged soluble Apo-3 Ligand (ligand)
chain: MGHHHHHHHHHHSSGHIDDDDKHMRASLSAQEPAQEELVAEEDQDPSELNPQTEESQDPAPFLNRLVRPRRSAPKGRKTRARRAIAAHYEVHPRPGQDGAQAGVDGTVSGWEEARINSSSPLRYNRQIGEFIVTRAGLYYLYCQVHFDEGKAVYLKLDLLVDGVLALRCLEEFSATAASSLGPQLRLCQVSGLLALRPGSSLRIRTLPWAHLKAAPFLTYFGLFQVH
notes: also called histidine tagged soluble Apo-3 Ligand; DNA30879
**Q.** Does B1 bind?
**A.** no binding (tested: 1 µg/ml ligand and 1 µg/ml receptor)
